{"source": "patent US20130115589A1", "about": "“Pharmaceutical Composition for Treatment and Prevention of Herpes Virus Infections” (THE UNIVERSITY OF TOKYO, priority 2010, published 2013)", "biological_target": "gB of HSV-1 (Human herpesvirus 1, UniProt P06436)", "conditions": "293T cells"}
{"molecule": "NMHC-IIBrod-Ig: fusion protein of Ig and the C-terminal fragment of NMHC-IIB, soluble form of NMHC-IIB (protein, left off: a dimerising Fc or GST; small tags and cut ends) FAQSKESEKKLKSLEAEILQLQEELASSERARRHAEQERDELADEITNSASGKSALLDEKRRLEARIAQLEEELEEEQSNMELLNDRFRKTTLQVDTLNAELAAERSAAQKSDNARQQLERQNKELKAKLQELEGAVKSKFKATISALEAKIGQLEEQLEQEAKERAAANKLVRRTEKKLKEIFMQVEDERRHADQYKEQMEKANARMKQLKRQLEEAEEEATRANASRRKLQRELDDATEANEGLSREVSTLKNRLRRGGPISFSSSRSGRRQLHLEGASLELSDDDTESKTSDVNETQPPQSE", "values": [{"measurement": "staining of cells expressing gB on their surface", "result": "stained"}]}
